Assay results: publication PMC7612376, “Structural basis of meiotic chromosome synaptic elongation through hierarchical fibrous assembly of SYCE2-TEX12” (Nature structural & molecular biology, 2021)
Where a chain is given by its changes, count along the chain named. Names and notes keep the numbering of the source. One block for each molecule: values may come before it.

T1: MBP-SYCE2 core (57-165) fusion protein (human, UniProt Q6PIF2 57-165)
T1 construct: SYCE2, human, core, residues 57-165; also called SYCE2-TEX12 core MBP-fusion, SYCE2 chain; source: E. coli BL21 (DE3), co-expressed with TEX12, purified; not shown: MBP, N-terminal, kept
T1 sequence (looked up): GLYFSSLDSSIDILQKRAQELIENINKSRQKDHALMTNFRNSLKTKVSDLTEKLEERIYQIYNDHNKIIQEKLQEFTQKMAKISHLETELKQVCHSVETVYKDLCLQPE

T2: SYCE2 core ΔS2C (amino-acids 57-154) (human, UniProt Q6PIF2 57-154)
T2 construct: SYCE2, human, ΔS2C, residues 57-154; source: E. coli BL21 (DE3), co-expressed with TEX12, purified (Ni-NTA, amylose, ion exchange, SEC); not shown: MBP, N-terminal, cleaved
T2 sequence (looked up): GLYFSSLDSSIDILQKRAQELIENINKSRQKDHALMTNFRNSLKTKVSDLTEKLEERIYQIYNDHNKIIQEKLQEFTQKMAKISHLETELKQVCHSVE

T3: SYCE2 full-length (1-218) (human, UniProt Q6PIF2 1-218)
T3 construct: SYCE2, human, full-length, residues 1-218; source: E. coli BL21 (DE3), co-expressed with TEX12, purified (Ni-NTA, amylose, ion exchange, SEC); not shown: MBP, N-terminal, cleaved
T3 sequence (looked up): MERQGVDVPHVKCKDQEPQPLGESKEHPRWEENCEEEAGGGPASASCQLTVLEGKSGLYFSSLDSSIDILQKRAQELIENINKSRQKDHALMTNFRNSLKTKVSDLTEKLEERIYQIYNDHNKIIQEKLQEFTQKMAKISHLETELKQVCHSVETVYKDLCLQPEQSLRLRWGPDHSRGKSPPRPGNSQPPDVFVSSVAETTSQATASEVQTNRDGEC

T4: MBP-SYCE2 core ΔS2C (57-154) fusion protein (human, UniProt Q6PIF2 57-154)
T4 construct: SYCE2, human, ΔS2C, residues 57-154; also called ΔS2C MBP-fusion, SYCE2 chain; source: E. coli BL21 (DE3), co-expressed with TEX12, purified; not shown: MBP, N-terminal, kept
T4 sequence (looked up): T2 sequence (looked up)

B1: TEX12 core ΔCtip (49-113) of the SYCE2-TEX12 core MBP-fusion proteins (domain or fragment, human, UniProt Q9BXU0 49-113, looked up)
chain: KDEALEKDLNDVSKEINLMLSTYAKLLSERAAVDASYIDEIDELFKEANAIENFLIQKREFLRQR
notes: TEX12, human, core ΔCtip, residues 49-113; also called ΔCtip in the MBP-fusion complex; source: E. coli BL21 (DE3), co-expressed with MBP-SYCE2, purified
B2: TEX12 core ΔCtip (amino-acids 49-113) (domain or fragment, human, UniProt Q9BXU0 49-113, looked up)
chain: B1 chain
notes: TEX12, human, core ΔCtip, residues 49-113; source: E. coli BL21 (DE3), co-expressed with SYCE2, purified (Ni-NTA, amylose, ion exchange, SEC); not shown: His6, N-terminal, cleaved
B3: SYCE2-TEX12 core ΔS2C/ΔCtip 2:2 complex (complex, human)
chain 1: T2 sequence (looked up)
chain 2: B1 chain
notes: SYCE2, human, ΔS2C, residues 57-154; TEX12, human, core ΔCtip, residues 49-113; m3 + m10; also called ΔS2C/ΔCtip core complex; source: E. coli BL21 (DE3), co-expressed, purified (Ni-NTA, amylose, ion exchange, SEC); not shown: MBP, N-terminal, cleaved; His6, N-terminal, cleaved; copies: 2 + 2
B4: TEX12 full-length (1-123) (natural protein, human, UniProt Q9BXU0 1-123, looked up)
chain: MMANHLVKPDNRNCKRPRELESPVPDSPQLSSLGKSDSSFSEISGLFYKDEALEKDLNDVSKEINLMLSTYAKLLSERAAVDASYIDEIDELFKEANAIENFLIQKREFLRQRFTVIANTLHR
notes: TEX12, human, full-length, residues 1-123; source: E. coli BL21 (DE3), co-expressed with SYCE2, purified (Ni-NTA, amylose, ion exchange, SEC); not shown: His6, N-terminal, cleaved
B5: SYCE2-TEX12 full-length wild-type, 2:2 building block (complex, human)
chain 1: T3 sequence (looked up)
chain 2: B4 chain
notes: SYCE2, human, full-length, residues 1-218; TEX12, human, full-length, residues 1-123; m2 + m9; also called full-length SYCE2-TEX12; source: E. coli BL21 (DE3), co-expressed, purified (Ni-NTA, amylose, ion exchange, SEC); not shown: MBP, N-terminal, cleaved; His6, N-terminal, cleaved; copies: 2 + 2
B6: SYCE2-TEX12 full-length FFV (TEX12 F102A F109A V116A), 2:2 building block (complex, human)
chain 1: T3 sequence (looked up)
chain 2: B4 chain with F102A, F109A, V116A
notes: SYCE2, human, full-length, residues 1-218; TEX12, human, full-length, residues 1-123, with F102A, F109A and V116A; m2 + m14; source: E. coli BL21 (DE3), co-expressed, purified (Ni-NTA, amylose, ion exchange, SEC); not shown: MBP, N-terminal, cleaved; His6, N-terminal, cleaved; copies: 2 + 2
B7: TEX12 full-length F102A F109A V116A (natural protein, human, UniProt Q9BXU0 1-123, looked up)
chain: B4 chain with F102A, F109A, V116A
notes: TEX12, human, full-length, residues 1-123, with F102A, F109A and V116A; also called FFV (full-length); source: E. coli BL21 (DE3), co-expressed with SYCE2, purified (Ni-NTA, amylose, ion exchange, SEC); not shown: His6, N-terminal, cleaved
B8: TEX12 full-length L110E F114E I117E L121E (natural protein, human, UniProt Q9BXU0 1-123, looked up)
chain: B4 chain with L110E, F114E, I117E, L121E
notes: TEX12, human, full-length, residues 1-123, with L110E, F114E, I117E and L121E; also called LFIL (full-length); source: E. coli BL21 (DE3), co-expressed with SYCE2, purified (Ni-NTA, amylose, ion exchange, SEC); not shown: His6, N-terminal, cleaved
B9: SYCE2 core (amino-acids 57-165) (domain or fragment, human, UniProt Q6PIF2 57-165, looked up)
chain: T1 sequence (looked up)
notes: SYCE2, human, core, residues 57-165; also called SYCE2 structural core; source: E. coli BL21 (DE3), co-expressed with TEX12, purified (Ni-NTA, amylose, ion exchange, SEC); not shown: MBP, N-terminal, cleaved
B10: TEX12 ΔCtip (amino-acids 1-113) (domain or fragment, human, UniProt Q9BXU0 1-113, looked up)
chain: MMANHLVKPDNRNCKRPRELESPVPDSPQLSSLGKSDSSFSEISGLFYKDEALEKDLNDVSKEINLMLSTYAKLLSERAAVDASYIDEIDELFKEANAIENFLIQKREFLRQR
notes: TEX12, human, ΔCtip, residues 1-113; also called TEX12 ΔCtip truncation; source: E. coli BL21 (DE3), co-expressed with SYCE2, purified (Ni-NTA, amylose, ion exchange, SEC); not shown: His6, N-terminal, cleaved
B11: TEX12 core F102A F109A V116A (domain or fragment, human, UniProt Q9BXU0 49-123, looked up)
chain: KDEALEKDLNDVSKEINLMLSTYAKLLSERAAVDASYIDEIDELFKEANAIENALIQKREALRQRFTAIANTLHR
notes: TEX12, human, core, residues 49-123, with F102A, F109A and V116A; also called FFV (core); source: E. coli BL21 (DE3), co-expressed with SYCE2, purified (Ni-NTA, amylose, ion exchange, SEC); not shown: His6, N-terminal, cleaved
B12: SYCE2-TEX12 core H89E/Y115E, 2:2 building block (complex, human)
chain 1: T1 sequence (looked up) with H33E, Y59E
chain 2: B11 chain with A54F, A61F, A68V
notes: SYCE2, human, core, residues 57-165, with H89E and Y115E; TEX12, human, core, residues 49-123; m4 + m8; also called H89E Y115E mutation; source: E. coli BL21 (DE3), co-expressed, purified (Ni-NTA, amylose, ion exchange, SEC); not shown: MBP, N-terminal, cleaved; His6, N-terminal, cleaved; copies: 2 + 2
B13: TEX12 core (49-123) of the SYCE2-TEX12 core MBP-fusion proteins (domain or fragment, human, UniProt Q9BXU0 49-123, looked up)
chain: B11 chain with A54F, A61F, A68V
notes: TEX12, human, core, residues 49-123; also called TEX12 core in the MBP-fusion complexes; source: E. coli BL21 (DE3), co-expressed with MBP-SYCE2, purified
B14: SYCE2-TEX12 core wild-type MBP-fusion, 2:2 building block (complex, human)
chain 1: T1 sequence (looked up)
chain 2: B11 chain with A54F, A61F, A68V
notes: SYCE2, human, core, residues 57-165; TEX12, human, core, residues 49-123; m6 + m16; found as a 4:4 complex in solution; also called SYCE2-TEX12 core MBP-fusion wild-type; source: E. coli BL21 (DE3), co-expressed, purified; not shown: MBP, N-terminal, kept; copies: 2 + 2
B15: SYCE2-TEX12 core wild-type, 2:2 building block (complex, human)
chain 1: T1 sequence (looked up)
chain 2: B11 chain with A54F, A61F, A68V
notes: SYCE2, human, core, residues 57-165; TEX12, human, core, residues 49-123; in solution it is found as 4:4 complex and larger assemblies, which are the rows of this molecule with itself; also called core complex; wild-type core; source: E. coli BL21 (DE3), co-expressed, purified (Ni-NTA, amylose, ion exchange, SEC); not shown: MBP, N-terminal, cleaved; His6, N-terminal, cleaved; copies: 2 + 2
B16: TEX12 core L110E F114E I117E L121E (domain or fragment, human, UniProt Q9BXU0 49-123, looked up)
chain: B11 chain with A54F, A61F, L62E, F66E, A68V, I69E, L73E
notes: TEX12, human, core, residues 49-123, with L110E, F114E, I117E and L121E; also called LFIL (core); source: E. coli BL21 (DE3), co-expressed with SYCE2, purified (Ni-NTA, amylose, ion exchange, SEC); not shown: His6, N-terminal, cleaved

Tests used:
[1] = molecular target: SYCE2-TEX12 full-length ΔCtip 2:2 complex (human) (UniProt Q6PIF2); test: SEC-MALS; co-purified complexes at >1 mg/ml on Superdex 200 Increase 10/300 GL in 20 mM Tris pH 8.0, 150 mM KCl, 2 mM DTT; in Fig. 1 core at 200 uM and full-length at 100 uM (4 mg/ml)
[2] = molecular target: SYCE2-TEX12 core ΔCtip 2:2 complex (human) (UniProt Q6PIF2); test: as above
[3] = molecular target: SYCE2-TEX12 core FFV (TEX12 F102A F109A V116A), 2:2 building block (human) (UniProt Q6PIF2); test: as above
[4] = molecular target: T1, MBP-SYCE2 core (57-165) fusion protein; test: as above; details: both partners purified
[5] = molecular target: the molecule itself; test: crystal structure; SYCE2-TEX12 core ΔCtip 2:2 complex, 33 mg/ml, 35 % MPD, 20°C; space group P21; PDB 6R17
[6] = molecular target: T2, SYCE2 core ΔS2C (amino-acids 57-154); test: SEC-MALS; co-purified complexes at >1 mg/ml on Superdex 200 Increase 10/300 GL in 20 mM Tris pH 8.0, 150 mM KCl, 2 mM DTT; in Fig. 1 core at 200 uM and full-length at 100 uM (4 mg/ml); details: both partners purified
[7] = molecular target: B9; test: as above; details: both partners purified
[8] = molecular target: the molecule itself; test: as above
[9] = molecular target: T3, SYCE2 full-length (1-218); test: as above; details: both partners purified
[10] = molecular target: T4, MBP-SYCE2 core ΔS2C (57-154) fusion …; test: as above; details: both partners purified

percent of total mass as 2:2 complex (not self-associated) [1]: 98%
percent of total mass as 4:4 complex [1]: 2%
stoichiometry N (2:2 building blocks) [1]: 2
Molecule: SYCE2-TEX12 full-length ΔCtip 2:2 complex (from UniProt Q6PIF2 1-218; Q9BXU0 1-113)

percent of total mass as 2:2 complex (not self-associated) [2]: 98%
percent of total mass as 4:4 complex [2]: 2%
stoichiometry N (2:2 building blocks) [2]: 2
Molecule: SYCE2-TEX12 core ΔCtip 2:2 complex (from UniProt Q6PIF2 57-165; Q9BXU0 49-113)

stoichiometry N (2:2 building blocks) [3]: 2
Molecule: SYCE2-TEX12 core FFV (TEX12 F102A F109A V116A), 2:2 building block (from UniProt Q6PIF2 57-165; Q9BXU0 49-123) (complex)

Molecule: B1
stoichiometry N [4]: 1 TEX12 per SYCE2 (2:2)

Molecule: B2
binding result [5]: binds
stoichiometry N [6]: 1 TEX12 per SYCE2 (2:2)
stoichiometry N [7]: 1 TEX12 per SYCE2 (2:2)

Molecule: B3
percent of total mass as 2:2 complex (not self-associated) [8]: 86%
percent of total mass as 4:4 complex [8]: 14%
stoichiometry N [8]: 2 2:2 building blocks

Molecule: B4
stoichiometry N [9]: 1 TEX12 per SYCE2 (2:2)

Molecule: B5
percent of total mass as 2:2 complex (not self-associated) [8]: 12%
percent of total mass as 4:4 complex [8]: 18%
stoichiometry N [8]: 2 2:2 building blocks

Molecule: B6
percent of total mass as 2:2 complex (not self-associated) [8]: 15%
percent of total mass as 4:4 complex [8]: 20%
stoichiometry N [8]: 2 2:2 building blocks

Molecule: B7
stoichiometry N [9]: 1 TEX12 per SYCE2 (2:2)

Molecule: B8
stoichiometry N [9]: 1 TEX12 per SYCE2 (2:2)

Molecule: B9
binding result [5]: binds

Molecule: B10
stoichiometry N [9]: 1 TEX12 per SYCE2 (2:2)

Molecule: B11
stoichiometry N [7]: 1 TEX12 per SYCE2 (4:4)

Molecule: B12
percent of total mass as 2:2 complex (not self-associated) [8]: 60%
percent of total mass as 4:4 complex [8]: 40%
stoichiometry N [8]: 2 2:2 building blocks

Molecule: B13
stoichiometry N [4]: 1 TEX12 per SYCE2 (4:4)
stoichiometry N [10]: 1 TEX12 per SYCE2 (2:2)

Molecule: B14
stoichiometry N [8]: 2 2:2 building blocks

Molecule: B15
percent of total mass as 4:4 complex [8]: 75%
stoichiometry N [8]: 2 2:2 building blocks

Molecule: B16
stoichiometry N [7]: 1 TEX12 per SYCE2 (2:2)
